What was measured:
Assay in all cases: WST-1 competition assay, decrease of formazan formation rate on SOO addition
[1] = biological target: T1, superoxide oxidase (SOO); CybB (Escherichia coli, UniProt P0ABE5, H158F); assay type: biochemical; conditions: apparent Km; forward reaction, superoxide from xanthine oxidase/hypoxanthine, bo3 oxidase regenerates quinone, 50 nM SOO, 100 mM sodium phosphate pH 8, 0.05% DDM; range printed jointly for H158A and H
T1 construct: full length with C-terminal 8xHis tag, expressed in E. coli BL21(DE3) pLysS, membrane protein purified in detergent (OGNG, assayed in DDM), two b hemes
T1 sequence (P0ABE5 whole entry H158F): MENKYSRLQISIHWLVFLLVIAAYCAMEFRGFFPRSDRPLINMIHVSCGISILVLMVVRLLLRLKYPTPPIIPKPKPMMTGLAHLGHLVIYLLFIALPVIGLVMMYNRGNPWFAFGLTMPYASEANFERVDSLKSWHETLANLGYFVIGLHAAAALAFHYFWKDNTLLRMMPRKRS

[2] = biological target: T2, superoxide oxidase (SOO); CybB (Escherichia coli, UniProt P0ABE5, H158A); assay type: biochemical; conditions: apparent Km; forward reaction, superoxide from xanthine oxidase/hypoxanthine, bo3 oxidase regenerates quinone, 50 nM SOO, 100 mM sodium phosphate pH 8, 0.05% DDM; range printed jointly for H158A and H
T2 construct: full length with C-terminal 8xHis tag, expressed in E. coli BL21(DE3) pLysS, membrane protein purified in detergent (OGNG, assayed in DDM), two b hemes
T2 sequence (P0ABE5 whole entry H158A): as the sequence (P0ABE5 whole entry H158F) above, with F158A counted along it

[3] = substrate: COC1=C(OC)C(=O)C(C/C=C(\C)CCC=C(C)C)=C(C)C1=O; assay type: biochemical, Escherichia coli; conditions: apparent Km, forward reaction, superoxide from xanthine oxidase/hypoxanthine, bo3 oxidase regenerates quinone, 50 nM SOO, 100 mM sodium phosphate pH 8, 0.05% DDM

Molecule: COC1=C(OC)C(=O)C(C/C=C(\C)CCC=C(C)C)=C(C)C1=O [ubiquinone Q2]
- Km [1]: 8 to 13 µM
- Km [2]: 8 to 13 µM

B1: superoxide oxidase (SOO); CybB (Escherichia coli K-12) (protein)
chain: MENKYSRLQISIHWLVFLLVIAAYCAMEFRGFFPRSDRPLINMIHVSCGISILVLMVVRLLLRLKYPTPPIIPKPKPMMTGLAHLGHLVIYLLFIALPVIGLVMMYNRGNPWFAFGLTMPYASEANFERVDSLKSWHETLANLGYFVIGLHAAAALAHHYFWKDNTLLRMMPRKRS
notes: full length with C-terminal 8xHis tag, expressed in E. coli BL21(DE3) pLysS, membrane protein purified in detergent (OGNG, assayed in DDM), two b hemes
- Km [3]: 0.4 µM

B2: superoxide oxidase (SOO); CybB (Escherichia coli K-12; D164A) (protein)
chain: MENKYSRLQISIHWLVFLLVIAAYCAMEFRGFFPRSDRPLINMIHVSCGISILVLMVVRLLLRLKYPTPPIIPKPKPMMTGLAHLGHLVIYLLFIALPVIGLVMMYNRGNPWFAFGLTMPYASEANFERVDSLKSWHETLANLGYFVIGLHAAAALAHHYFWKANTLLRMMPRKRS
notes: as for B1
- Km [3]: 5 µM

B3: superoxide oxidase (SOO); CybB (Escherichia coli K-12; D164E) (protein)
chain: MENKYSRLQISIHWLVFLLVIAAYCAMEFRGFFPRSDRPLINMIHVSCGISILVLMVVRLLLRLKYPTPPIIPKPKPMMTGLAHLGHLVIYLLFIALPVIGLVMMYNRGNPWFAFGLTMPYASEANFERVDSLKSWHETLANLGYFVIGLHAAAALAHHYFWKENTLLRMMPRKRS
notes: as for B1
- Km [3]: 3 µM
